Data reported in IntAct's records for PubMed 19966303.

Assays:
[1] = molecular target: ypk1_yeast YPK1 (UniProt P12688)
[2] = molecular target: atc5_yeast DNF1 (UniProt P32660)
Sequence of atc5_yeast DNF1 (P32660 whole entry): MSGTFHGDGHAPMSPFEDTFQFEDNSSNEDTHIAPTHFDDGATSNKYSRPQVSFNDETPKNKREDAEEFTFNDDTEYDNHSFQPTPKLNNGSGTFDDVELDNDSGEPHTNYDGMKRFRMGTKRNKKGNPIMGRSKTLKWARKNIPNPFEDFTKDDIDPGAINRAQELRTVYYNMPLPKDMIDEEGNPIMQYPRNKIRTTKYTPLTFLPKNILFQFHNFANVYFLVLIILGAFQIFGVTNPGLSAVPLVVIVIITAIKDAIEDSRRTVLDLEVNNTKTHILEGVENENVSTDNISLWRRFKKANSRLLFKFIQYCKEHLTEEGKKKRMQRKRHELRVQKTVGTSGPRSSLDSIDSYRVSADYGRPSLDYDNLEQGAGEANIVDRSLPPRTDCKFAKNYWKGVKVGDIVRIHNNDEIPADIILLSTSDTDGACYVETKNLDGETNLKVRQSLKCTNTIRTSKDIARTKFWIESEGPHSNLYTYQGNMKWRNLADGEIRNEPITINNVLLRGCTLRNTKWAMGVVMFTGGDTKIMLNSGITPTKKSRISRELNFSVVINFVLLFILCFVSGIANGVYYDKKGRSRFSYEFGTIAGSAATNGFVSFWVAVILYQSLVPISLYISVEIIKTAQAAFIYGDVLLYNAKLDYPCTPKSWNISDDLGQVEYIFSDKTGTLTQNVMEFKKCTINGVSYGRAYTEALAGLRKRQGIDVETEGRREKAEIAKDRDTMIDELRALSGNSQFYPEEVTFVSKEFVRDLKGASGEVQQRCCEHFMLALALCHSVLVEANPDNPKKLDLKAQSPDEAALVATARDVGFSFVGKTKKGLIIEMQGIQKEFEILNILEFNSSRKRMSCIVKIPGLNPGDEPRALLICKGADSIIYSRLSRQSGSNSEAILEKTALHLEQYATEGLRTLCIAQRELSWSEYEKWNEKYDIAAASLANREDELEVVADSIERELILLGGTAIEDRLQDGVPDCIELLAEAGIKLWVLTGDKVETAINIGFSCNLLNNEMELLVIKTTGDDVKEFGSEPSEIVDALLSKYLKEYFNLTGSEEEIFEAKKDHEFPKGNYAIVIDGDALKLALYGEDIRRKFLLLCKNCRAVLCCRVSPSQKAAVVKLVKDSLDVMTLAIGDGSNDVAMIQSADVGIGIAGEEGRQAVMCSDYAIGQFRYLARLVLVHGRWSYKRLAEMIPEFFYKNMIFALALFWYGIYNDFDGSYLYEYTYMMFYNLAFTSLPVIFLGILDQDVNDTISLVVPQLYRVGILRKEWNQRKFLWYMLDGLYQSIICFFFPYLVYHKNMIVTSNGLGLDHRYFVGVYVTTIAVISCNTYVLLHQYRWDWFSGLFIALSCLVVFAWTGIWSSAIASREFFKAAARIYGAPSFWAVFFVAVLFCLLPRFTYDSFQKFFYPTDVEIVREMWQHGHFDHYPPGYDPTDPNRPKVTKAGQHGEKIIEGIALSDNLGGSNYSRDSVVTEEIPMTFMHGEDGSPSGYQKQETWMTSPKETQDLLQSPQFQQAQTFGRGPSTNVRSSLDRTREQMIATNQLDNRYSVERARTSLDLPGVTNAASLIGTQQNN

Sequence of ypk1_yeast YPK1 (P12688 whole entry): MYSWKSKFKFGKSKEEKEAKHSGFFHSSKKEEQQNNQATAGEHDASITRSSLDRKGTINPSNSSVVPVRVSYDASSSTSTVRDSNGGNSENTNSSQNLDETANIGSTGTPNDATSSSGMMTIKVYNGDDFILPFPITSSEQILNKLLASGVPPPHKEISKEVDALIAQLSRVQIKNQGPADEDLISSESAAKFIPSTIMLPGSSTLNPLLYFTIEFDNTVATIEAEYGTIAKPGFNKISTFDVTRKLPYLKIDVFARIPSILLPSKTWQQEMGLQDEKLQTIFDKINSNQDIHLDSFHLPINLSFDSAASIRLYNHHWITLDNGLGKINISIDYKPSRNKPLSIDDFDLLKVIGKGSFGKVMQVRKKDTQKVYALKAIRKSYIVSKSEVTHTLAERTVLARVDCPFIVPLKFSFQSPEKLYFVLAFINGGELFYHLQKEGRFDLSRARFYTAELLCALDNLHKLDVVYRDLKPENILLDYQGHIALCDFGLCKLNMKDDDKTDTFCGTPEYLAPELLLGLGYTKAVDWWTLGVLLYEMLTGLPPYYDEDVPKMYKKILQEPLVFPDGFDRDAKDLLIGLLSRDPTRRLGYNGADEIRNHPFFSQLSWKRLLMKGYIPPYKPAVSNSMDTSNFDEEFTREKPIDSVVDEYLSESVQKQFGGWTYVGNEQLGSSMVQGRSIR

effect of a mutation on the interaction [1]: disrupting interaction
effect of a mutation on the interaction [2]: disrupting interaction
Substance: Flippase kinase 1 (Saccharomyces cerevisiae), P53739 D621A
